Assay results taken from article doi:10.1101/492876.
pKd: −log10 of the molar value.

How the values were obtained:
[1] = biological target: elongation factor thermo-unstable (EF-Tu), hexahistidine-tagged (E. coli) (UniProt P0CE47); assay: SEC
[2] = biological target: preformed oligomeric EF-Tu (^OligoEF-Tu) (E. coli) (UniProt P0CE47); assay: ITC

Substance | stoichiometry N [1] | pKd [2] | dH [2] [kcal/mol] | stoichiometry N [2]
elongation factor thermo-unstable (EF-Tu), hexahistidine-tagged (from UniProt P0CE47 1-394) (natural protein) | 2 |  |  | 
reduced form of Hsp33 (^RHsp33) (from UniProt P0A6Y5 1-292) (natural protein) | 1 | 6.24 | -18.8 | 2.37
